Measured values as given in the supplement of paper PMC10126150.
± gives the standard deviation of the averaged measurements.

Test system: ATP
Test: switch fluorescence ratio, 500 uM ATP over buffer (Cy3 cluster intensity, sum of 5 cycles each) (fold (ratio)); higher = stronger signal-on switching upon ATP binding; sequences stand for … in TCGTCGGCAGCGTCAGATGTGTATAAGAGACAGTTTTTTTTTTTTTTTTTTTTTTTTT…TC
Details: aptamer strand: ATP DNA aptamer (quencher-CACCTGGGGGAGTATTGCGGAGGAAGG + anchor), 100 nM annealed; ATP concentration: 500 uM
Procedure, shortened: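 Exposure to 500 uM ATP lasted 15 min at 22 °C before imaging, and a selection-buffer image was taken beforehand, for Cy3-labelled switching-strand clusters on a modified Illumina MiSeq flow-cell annealed to 100 nM quencher-labelled ATP aptamer. Five buffer/ATP cycles were run with NaOH stripping and re-annealing between them. The fluorescence ratio per cluster is summed target-cycle over summed buffer-cycle Cy3 intensity, averaged per switch-domain sequence. Clusters outside 100-1000 RFU were excluded.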

Sequence	switch fluorescence ratio
CGCGGGTTGG	1.02 ± 0.017
CGCGGGTTTT	1.0416 ± 0.00069
CGCGGTCATA	1.023 ± 0.01
CGCGTCCGTC	1.03 ± 0.056
CGCGTGGATC	1.06 ± 0.047
CGCGTGGGGC	1.06 ± 0.015
CGCGTGTGTG	1.02 ± 0.038
CGCGTTAGGG	1.03 ± 0.011
CGCGTTCCGT	1.03 ± 0.019
CGCTAAAGTG	1.06 ± 0.086
CGCTACTATT	1.12 ± 0.087
CGCTAGACAC	1.49 ± 0.054
CGCTAGGGAA	1.03 ± 0.045
CGCTAGGGTA	1.04 ± 0.036
CGCTATATCG	1.09 ± 0.081
CGCTATGATG	0.984 ± 0.028
CGCTATTGGG	1.046 ± 0.0086
CGCTGAGCAC	1.18 ± 0.059
CGCTGAGGTA	1 ± 0.03
CGCTGAGTAT	0.995 ± 0.021
CGCTGATGCT	1.0852 ± 0.00031
CGCTGATTAG	1.041 ± 0.0092
CGCTGCACGG	1.07 ± 0.038
CGCTGCTGGT	0.998 ± 0.031
CGCTGGAACT	1.0166 ± 0.00022

Sequence	switch fluorescence ratio
CGCTGGAGGG	1.02 ± 0.093
CGCTGGGGGT	1.16 ± 0.2
CGCTGTGGAA	1.04 ± 0.044
CGCTGTGGAG	1.01 ± 0.012
CGCTGTGGGA	0.973 ± 0.053
CGCTTAAAAA	1.02 ± 0.079
CGCTTCGGGG	0.9735 ± 0.0082
CGCTTGAGTC	1.025 ± 0.0062
CGCTTTACCG	1 ± 0.051
CGCTTTATGA	1.07 ± 0.024
CGCTTTATGT	1.06 ± 0.18
CGCTTTCACC	1.218 ± 0.0019
CGCTTTTTTT	1.01 ± 0.025
CGGAAAAAAG	1.018 ± 0.007
CGGAAACTAG	1.022 ± 0.0038
CGGAAATAAA	0.968 ± 0.025
CGGAACAATG	1.3945 ± 0.00059
CGGAACGTGC	1.04 ± 0.045
CGGAAGATAT	1.039 ± 0.00018
CGGAAGGCCA	0.9836 ± 0.0044
CGGAAGTGCC	1.016 ± 0.0014
CGGAAGTTGA	1.02 ± 0.067
CGGACATGGA	1.011 ± 0.0084
CGGACCATAT	1.11 ± 0.017
CGGACCATTC	1.27 ± 0.032

Sequence	switch fluorescence ratio
CGGACTAACG	1.08 ± 0.053
CGGACTTTG	0.999 ± 0.026
CGGACTTTTC	1.042 ± 0.0018
CGGAGCAGTT	2.46 ± 0.41
CGGAGGATGC	1.31 ± 0.019
CGGAGGGAAT	2.91 ± 2.3
CGGAGGGGGA	0.973 ± 0.019
CGGAGGTTTG	1.39 ± 0.62
CGGAGGTTTT	0.993 ± 0.049
CGGAGTAAGA	2.53 ± 0.15
CGGAGTACGG	1.06 ± 0.075
CGGAGTCCGG	1.04 ± 0.059
CGGAGTGGTT	1 ± 0.017
CGGAGTTAAT	1.66 ± 0.048
CGGATAGAGC	0.9951 ± 0.0085
CGGATAGTGG	0.994 ± 0.014
CGGATCGTGG	0.987 ± 0.021
CGGATCGTTG	0.9655 ± 0.0084
CGGATCTTTG	0.977 ± 0.0033
CGGATGAGGG	1.01 ± 0.044
CGGATGAGTA	0.988 ± 0.029
CGGATGGGGA	0.993 ± 0.028
CGGATGGGGT	0.973 ± 0.038
CGGATGTAAC	1.02 ± 0.024
CGGATGTGCA	0.981 ± 0.018

Sequence	switch fluorescence ratio
CGGATTAAAC	1.04 ± 0.022
CGGATTTATA	0.979 ± 0.019
CGGCAATGGG	1.77 ± 0.15
CGGCACAATA	1.78 ± 0.041
CGGCACAGCC	1.05 ± 0.057
CGGCACCCGT	0.9653 ± 0.0078
CGGCAGGCAG	1.04 ± 0.13
CGGCAGGGGT	1.11 ± 0.064
CGGCATTTTT	1.03 ± 0.036
CGGCCCGCCC	1.27 ± 0.35
CGGCCGGTTG	1 ± 0.019
CGGCCTGGCG	0.969 ± 0.016
CGGCGAAGAT	1.01 ± 0.025
CGGCGCATTA	2.86 ± 0.55
CGGCGCGCTG	0.997 ± 0.034
CGGCGCTAGG	1.05 ± 0.045
CGGCGCTTCA	1.063 ± 0.0061
CGGCGCTTGG	1.09 ± 0.035
CGGCGGAACG	0.966 ± 0.031
CGGCGGATTC	1.03 ± 0.019
CGGCGGCAGG	0.9881 ± 0.0068
CGGCGGTCGG	0.9808 ± 0.0076
CGGCGTTCGC	0.964 ± 0.049
CGGCGTTGCT	0.981 ± 0.045
CGGCTACGGG	0.995 ± 0.046

Sequence	switch fluorescence ratio
CGGCTAGGTC	1.03 ± 0.012
CGGCTAGTGG	0.961 ± 0.032
CGGCTCGATA	0.976 ± 0.02
CGGCTCTTAG	0.99 ± 0.011
CGGCTGGAGT	1.001 ± 0.0043
CGGCTGGGGC	1.02 ± 0.015
CGGCTGGGGG	0.976 ± 0.014
CGGCTTATAT	1.06 ± 0.041
CGGCTTATGG	1.03 ± 0.07
CGGGAAAATG	0.988 ± 0.012
CGGGAAAATT	1.02 ± 0.025
CGGGAAATCC	1.042 ± 0.0085
CGGGAACTGG	0.97 ± 0.023
CGGGAAGGTT	1.08 ± 0.16
CGGGACCCCC	1.141 ± 0.011
CGGGACTGTT	1.02 ± 0.059
CGGGAGAATA	0.989 ± 0.013
CGGGAGAGAC	1.013 ± 0.0025
CGGGAGTCAG	1 ± 0.021
CGGGAGTTAG	1.02 ± 0.021
CGGGATAATC	1.07 ± 0.052
CGGGATATGG	1.03 ± 0.045
CGGGATCCAC	1.01 ± 0.034
CGGGATCTGG	0.977 ± 0.015
CGGGATGCCC	1.01 ± 0.047

Sequence	switch fluorescence ratio
CGGGATGGGG	1 ± 0.041
CGGGATGTTG	1.02 ± 0.035
CGGGATTCTG	1 ± 0.031
CGGGCAGCGT	0.986 ± 0.0076
CGGGCCATCG	0.9939 ± 0.0063
CGGGCCGAGG	1.02 ± 0.018
CGGGCCGGGT	0.976 ± 0.031
CGGGCCTTGG	1.026 ± 0.0016
CGGGCGGGGT	1.03 ± 0.051
CGGGCTACTA	1.05 ± 0.016
CGGGCTAGGG	0.9979 ± 0.0049
CGGGCTATCC	1.03 ± 0.03
CGGGCTATTC	1.22 ± 0.034
CGGGCTGGTG	1.0093 ± 0.0005
CGGGCTGTGG	0.992 ± 0.03
CGGGCTTAAG	1.02 ± 0.037
CGGGCTTGG	1.03 ± 0.021
CGGGGAAATA	1.01 ± 0.027
CGGGGAAATC	1.03 ± 0.035
CGGGGAATGG	1.01 ± 0.03
CGGGGACGGA	1.02 ± 0.029
CGGGGAGGCA	0.997 ± 0.031
CGGGGAGGTC	1.07 ± 0.072
CGGGGAGTGC	1.01 ± 0.061
CGGGGATACT	1.38 ± 0.24

Sequence	switch fluorescence ratio
CGGGGATCGG	0.984 ± 0.011
CGGGGATGTG	1.02 ± 0.025
CGGGGCAAAG	1.96 ± 1.6
CGGGGCACAG	1.005 ± 0.0014
CGGGGCAGAG	0.991 ± 0.043
CGGGGCGTGC	1.01 ± 0.029
CGGGGCTTGG	1.01 ± 0.023
CGGGGGACCG	1 ± 0.02
CGGGGGAGGA	0.997 ± 0.011
CGGGGGCAGC	1.01 ± 0.06
CGGGGGCCAG	0.994 ± 0.038
CGGGGGCGCA	0.9414 ± 0.007
CGGGGGCGCC	1.02 ± 0.031
CGGGGGCGGC	0.974 ± 0.014
CGGGGGCGGG	0.99 ± 0.042
CGGGGGCTAG	0.996 ± 0.012
CGGGGGCTTG	0.975 ± 0.02
CGGGGGGACT	0.998 ± 0.059
CGGGGGGCAC	0.999 ± 0.021
CGGGGGGCGT	0.999 ± 0.021
CGGGGGGGAC	1.11 ± 0.16
CGGGGGGGAT	1.02 ± 0.026
CGGGGGGGCC	0.99 ± 0.042
CGGGGGGGGA	1.02 ± 0.035
CGGGGGGTCG	1.04 ± 0.069

Sequence	switch fluorescence ratio
CGGGGGGTG	1.01 ± 0.05
CGGGGGTATG	0.994 ± 0.034
CGGGGGTCGT	0.98794 ± 0.00054
CGGGGGTCTG	1.01 ± 0.028
CGGGGGTGGT	1.01 ± 0.033
CGGGGGTTAA	0.9908 ± 0.0021
CGGGGGTTCA	1.01 ± 0.035
CGGGGGTTGG	0.999 ± 0.025
CGGGGGTTTC	1.02 ± 0.023
CGGGGGTTTG	1.01 ± 0.031
CGGGGTAAAG	0.9787 ± 0.0032
CGGGGTACTT	1.06 ± 0.056
CGGGGTAGGG	0.983 ± 0.016
CGGGGTCAAT	1.85 ± 1.2
CGGGGTCATT	0.979 ± 0.011
CGGGGTCGGT	0.963 ± 0.021
CGGGGTGCGT	1.02 ± 0.037
CGGGGTGCTA	1.007 ± 0.0077
CGGGGTGGGG	0.993 ± 0.056
CGGGGTGTGG	1.01 ± 0.033
CGGGGTTACC	0.9924 ± 0.0059
CGGGGTTCGC	1.95 ± 1.3
CGGGGTTGTT	0.9882 ± 0.0067
CGGGTAAGCC	0.961 ± 0.027
CGGGTAAGGG	1.01 ± 0.04
